Assays:
[1] = tested on: NHDK cells; test: H2O2 production by P. acnes-stimulated NHDK; assay type: cell-based, human; conditions: 0.87 to 7 μM
Protocol: (§1) For experiences of stimulation with P. acnes, cells were incubated with the P. acnes suspension adjusted at the appropriate concentration, pre-treated for 1 h at 37° C. or not with fibrinogen recombinant peptides Fg1 and Fg2 at the concentrations 0.87, 1.75, 3.5 or 7 μM for the desired period of time at 37° C. in 5% CO2.
(§2) All cells lines (5·10^4 to 10^5 cells/well) were seeded in 96-well plates (Corning Costar, Brumath, France) and treated as previously described. After stimulation, cells were washed three times in PBS and incubated with 100 μl per wells of 5 μM DHE (for determination of O2^●−) or 5 μM H2-DCFDA (for determination of H2O2) for 30 min as described previously and fluorescence intensity was recorded every hour over a period of 5 h. Fluorescence excitation/emission maxima were for DHE: 480/610 nm and for H2-DCFDA: 507/525 nm. At the end of the experiment, the number of adherent cells was evaluated by the crystal violet assay as described below. O2^●−, and H2O2 were assayed by spectrofluorimetry on a Fusion spectrofluorimeter (PackardBell, Paris, France). Levels of ROS were calculated in each sample as follows: reactive oxygen species rate (arbitrary units/min/10^6 cells)=(fluorescence intensity [arbitrary units] at T5h—fluorescence intensity [arbitrary units] at To/300 minutes/number of adherent cells as measured by the crystal violet assay, and were expressed as arbitrary unit (A.U.).
(§3) To assess the efficacy of Fg1 recombinant peptide, the production of O2^∘− and H2O2 by HaCaT cells NHDK, THP-1, MRC5 and HDF stimulated by pretreated P. acnes strains 6919, RON and PIE was measured. The amount of ROS produced was compared to that produced by the stimulated cells with untreated bacteria. Production baseline was obtained by measuring ROS on unstimulated cells. The production of IL-1ß, IL-8, IL-12 and TNF-α was also measured in all conditions cited above. The measurement of the production of ROS is performed by spectrofluorimetry in the presence of specific fluorochromes directly on the monolayer cell. Measurement of cytokine production was performed in parallel on the cell culture supernatant.
Two sets of experiments were implemented: 1) The cells were stimulated (18 h at 37° C.) by P. acnes strains previously pretreated with Fg1 and Fg2 peptides at the final concentrations ranging from 0.87 to 7 μM for 1 h at 37° C.; and 2) The cells were pretreated first with Fg1 and Fg2 peptides at the final concentrations ranging from 0.87 to 7 μM for 24 h at 37° C. and stimulated (18 h at 37° C.) by P. acnes strains.
To assess the efficacy of the small Fg1-related peptide, the production of H2O2 by several cell lines (HaCaT, NHDK, THP-1, MRC5 and HDF) stimulated by three P. acnes strains 6919, RON and PIE was measured, in presence or not with the small peptides. The amount of H2O2 produced is compared to that produced by the stimulated cells with untreated bacteria. Production baseline is obtained by measuring H2O2 on unstimulated cells. The measurement of the production of H2O2 is performed by spectrofluorimetry in the presence of specific fluorochromes directly on the monolayer cell.
Two sets of experiments have been implemented: • I) The cells are stimulated (18 h at 37° C.) by P. acnes strains previously pretreated with Fg1.1, Fg1.2, Fg1.3, Fg1.4, and Fg1.5 small peptides at the final concentrations ranging from 2.5 to 20 μM for 1 h at 37° C.; • II) The cells are pretreated first with the five small peptides at the final concentrations ranging from 2.5 to 20 μM for 24 h at 37° C. and stimulated (18 h at 37° C.) by P. acnes strains.

[2] = tested on: P. acnes RON strain; test: Adhesion assay, biotinylated P. acnes binding to monocytes (ThP1); assay type: cell-based, Propionibacterium acnes; conditions: monocytes (THP-1); bacteria pretreated 0.87 to 7 μM, 1 h at 37° C.
Protocol: FIG. 13: Dose-dependent inhibition of P. acnes RON binding to monocytes cell line. Biotinylated P. acnes RON strain at concentrations adjusted to 0.1 of absorbance at 600 nm was pre-treated with the recombinant peptides Fg1 and Fg2 and incubated 1 h at 37° C. with the human immortalized monocytes cell line ThP1. After removal of unbound bacteria, adhesion activity was detected at 410 nm. Data are means±S.D. of three separate experiments. Statistical significance is indicated by * (P<0.05), ** (P<0.01), *** (P<0.001), and **** (P<0.0001), respectively.
The bacterial suspension was adjusted at 600 nm to the desired concentration, pretreated with peptides Fg1 and Fg2 at the final concentration ranging from 0.87 to 7 μM for 1 h at 37° C. and deposited on the previously saturated cells with a solution of PBS SVF 2% for 2 h. After incubation for 1 h at 37° C., unbound bacteria are removed by 3 washes with PBS and fixed bacteria are detected by a streptavidin-peroxidase solution of 0.5 μg/ml for 30 min.
Whole P. acnes bacteria are labelled by biotinylation, pre-treated or not with the peptides and contacted with the various cell lines. After removal of the unfixed bacteria, the adhesion activity was measured spectrophotometrically by using the streptavidin-peroxidase conjugate and a chromogenic substrate. […]

[3] = tested on: NHDK cells; test: IL-12 production by P. acnes-stimulated NHDK (ELISA); assay type: cell-based, human; conditions: P. acnes RON, set I, bacteria first pretreated, 0.87 to 7 μM
Protocol: as §1
Human IL-1ß, IL-8, IL-12, hBD-2, and TNF-α protein concentration was measured in the supernatants of stimulated cells using various ELISA Set kits (Ready-Set-Go kit from eBioscience for acne experiments, and for psoriasis experiments the Duo set IL-8 kit from R&D Systems and the BD-2 Human Development (hBD-2) from Peprotech) according to the manufacturer's instructions. We used serial dilutions of recombinant human IL-1ß, IL-8, IL-12 and TNF-α for standard curve. The optical density was determined at 450 nm at a wavelength correction of 540 nm.
as §3, with “The measurement of the production of ROS is performed by spectrofluorimetry in the presence of specific fluorochromes directly on the monolayer cell. Measurement of cytokine production was performed in parallel on the cell culture supernatant.” left out

[4] = tested on: HaCaT, NHDK, THP-1, MRC5 and HDF; test: O2°− production by cells stimulated with P. acnes, overall statement for the five cell lines; assay type: cell-based, human; conditions: pretreatment of P. acnes strains; five cell lines and three strains tested
Protocol: as §1
as §2, with “O2^●−, and H2O2 were assayed by spectrofluorimetry on a Fusion spectrofluorimeter (PackardBell, Paris, France).” left out, “(A.U.). […]” for “(A.U.).”

B1: MKRMVSWSFHKLKTMKHLLLLLLCVFLVKSQGVNDNEEGFFSARGHRPLDKKREEAPSLRPAPPPISGGGYRARPAKAAATQKKVERKAPDAGGCLHADPDLGVLC (protein)
chain: MKRMVSWSFHKLKTMKHLLLLLLCVFLVKSQGVNDNEEGFFSARGHRPLDKKREEAPSLRPAPPPISGGGRARPAKAAATQKKVERKAPDAGGCLHADPDLGVLCMKRMVSWSFHKLKTMKHLLLLLLCVFLVKSQGVNDNEEGFFSARGHRPLDKKREEAPSLRPAPPPISGGGYRARPAKAAATQKKVERKAPDAGGCLHADPDLGVLC
modifications: GST fusion; fragment Fg1
notes: fragment of Bß chain of human fibrinogen having 106 amino acids; recombinant GST-fused peptide expressed in E. coli
Inhibition of Hydrogen peroxide (H2O2) production ([1]; P. acnes 6919, set I, bacteria first pretreated): pos | Inhibition of Hydrogen peroxide (H2O2) production ([1]; P. acnes 6919, set II, cells first pretreated): pos | Inhibition of Hydrogen peroxide (H2O2) production ([1]; P. acnes PIE, set I, bacteria first pretreated): pos | Inhibition of Hydrogen peroxide (H2O2) production ([1]; P. acnes PIE, set II, cells first pretreated): pos | Inhibition of Hydrogen peroxide (H2O2) production ([1]; P. acnes RON, set I, bacteria first pretreated): pos | Inhibition of Hydrogen peroxide (H2O2) production ([1]; P. acnes RON, set II, cells first pretreated): pos | Inhibition of adhesion of P. acnes RON strain [2]: inhibits the adhesion of RON strain in a dose-dependent manner | Inhibition of Interleukine 12 (IL-12) production [3]: pos | Inhibition of O2°− production [4]: in a dose-dependent manner

Source: US10323078B2, “Isolated peptides and fragments thereof from fibrinogen for use as drugs, particularly in skin inflammatory diseases” (Universite Paris Descartes, priority 2015, dated 2019)
